Tested on: peptide library, one residue held at a place counted from the S/T acceptor
Test: relative phosphorylation of the sub-library (ratio to the mean residue at this position); higher = residue favoured
Conditions: human
Summary of the method: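 Each biotinylated degenerate peptide sub-library fixed one residue at one position around a central Ser/Thr and was incubated with a purified recombinant kinase, a human or orthologue construct, in 384-well plates. The 90 min reactions, under kinase-specific conditions, contained 50 μM peptide and 50 μM ATP spiked with γ-32P-ATP. Phosphorylation was read by phosphorimaging spots on streptavidin membranes and quantifying them by densitometry. Relative sub-library phosphorylation expresses each value as a ratio to the mean residue at that position.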

Chain of NEK7, construct: Full length (Q8TDX7 whole entry, looked up): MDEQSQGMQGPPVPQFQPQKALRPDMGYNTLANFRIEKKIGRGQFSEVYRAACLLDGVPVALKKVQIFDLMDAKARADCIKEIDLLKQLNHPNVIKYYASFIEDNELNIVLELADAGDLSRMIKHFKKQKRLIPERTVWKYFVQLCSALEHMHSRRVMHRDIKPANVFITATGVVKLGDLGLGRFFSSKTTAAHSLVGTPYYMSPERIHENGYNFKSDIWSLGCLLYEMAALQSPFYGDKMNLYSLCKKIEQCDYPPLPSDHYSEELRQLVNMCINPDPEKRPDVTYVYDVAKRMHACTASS
Chain of PLK1, construct: Full length (P53350 whole entry, looked up): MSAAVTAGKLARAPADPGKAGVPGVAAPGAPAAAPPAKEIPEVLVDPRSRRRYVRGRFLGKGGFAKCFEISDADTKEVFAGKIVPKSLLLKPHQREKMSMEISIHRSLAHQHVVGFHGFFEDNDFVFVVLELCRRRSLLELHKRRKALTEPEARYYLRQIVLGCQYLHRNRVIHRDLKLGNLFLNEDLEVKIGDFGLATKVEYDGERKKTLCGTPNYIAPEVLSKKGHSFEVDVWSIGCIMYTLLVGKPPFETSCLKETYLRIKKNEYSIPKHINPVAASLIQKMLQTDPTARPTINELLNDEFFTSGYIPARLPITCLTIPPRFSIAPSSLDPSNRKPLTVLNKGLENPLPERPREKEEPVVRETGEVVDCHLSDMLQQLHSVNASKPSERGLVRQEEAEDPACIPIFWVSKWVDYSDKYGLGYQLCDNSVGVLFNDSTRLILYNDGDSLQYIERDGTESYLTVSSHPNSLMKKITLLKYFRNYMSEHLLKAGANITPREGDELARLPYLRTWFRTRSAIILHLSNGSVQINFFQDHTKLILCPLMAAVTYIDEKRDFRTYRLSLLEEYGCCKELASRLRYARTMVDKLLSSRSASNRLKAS

NEK7, construct: Full length (from UniProt Q8TDX7)
relative phosphorylation
Conditions | at +1 | at +2 | at +3 | at +4 | at -1 | at -2 | at -3 | at -4 | at -5
A fixed | 0.653 | 1.05 | 0.923 | 0.86 | 1.05 | 1.12 | 0.975 | 1.02 | 1.07
D fixed | 0.327 | 0.61 | 0.66 | 0.722 | 1.29 | 2.31 | 0.65 | 1.91 | 1.83
E fixed | 0.267 | 0.376 | 0.597 | 0.747 | 1.42 | 1.8 | 0.583 | 1.28 | 1.43
F fixed | 1.54 | 0.717 | 1.21 | 0.846 | 0.646 | 0.87 | 1.94 | 0.839 | 0.989
G fixed | 0.827 | 1.12 | 1.28 | 1.18 | 0.713 | 1.4 | 0.853 | 1.05 | 0.972
H fixed | 1.16 | 1.38 | 1.21 | 1.11 | 1.12 | 1.3 | 0.755 | 1.03 | 1.06
I fixed | 1.28 | 0.812 | 0.957 | 0.919 | 0.569 | 0.433 | 0.494 | 0.647 | 0.831
K fixed | 0.588 | 1.47 | 1.24 | 1.3 | 1.34 | 0.625 | 0.446 | 0.82 | 0.842
L fixed | 1.18 | 0.549 | 1.1 | 0.895 | 1.02 | 0.718 | 2.39 | 0.832 | 0.771
M fixed | 1.78 | 0.693 | 0.899 | 0.948 | 1.03 | 0.973 | 1.46 | 0.823 | 0.703
N fixed | 1 | 1.63 | 0.833 | 0.907 | 1.22 | 1.47 | 0.705 | 1.35 | 1.15
P fixed | 0.242 | 0.691 | 0.703 | 1.09 | 0.234 | 0.356 | 1.3 | 0.918 | 0.886
Q fixed | 1.33 | 0.933 | 0.813 | 0.986 | 1.52 | 0.951 | 0.628 | 0.889 | 0.938
R fixed | 0.865 | 2.1 | 1.08 | 1.16 | 1.21 | 0.626 | 0.652 | 0.959 | 0.878
V fixed | 1.05 | 0.905 | 0.889 | 0.846 | 0.901 | 0.372 | 0.538 | 0.613 | 0.8
W fixed | 1.47 | 0.94 | 1.58 | 1.46 | 0.908 | 0.859 | 1.4 | 1.23 | 1.1
Y fixed | 1.44 | 1.02 | 1.02 | 1.02 | 0.796 | 0.822 | 1.23 | 0.78 | 0.754
pThr fixed | 0.701 | 0.607 | 0.62 | 0.842 | 0.624 | 1 | 0.973 | 1.15 | 0.979
pTyr fixed | 0.816 | 0.62 | 0.836 | 0.681 | 1.68 | 1.6 | 1.12 | 0.861 | 1.12

PLK1, construct: Full length (from UniProt P53350)
relative phosphorylation
Conditions | at +1 | at +2 | at +3 | at +4 | at -1 | at -2 | at -3 | at -4 | at -5
A fixed | 0.622 | 0.73 | 0.85 | 0.951 | 0.748 | 0.452 | 0.934 | 1.12 | 1.16
D fixed | 0.419 | 0.677 | 1.4 | 1.35 | 1.62 | 3.98 | 1.1 | 1.47 | 1.34
E fixed | 0.461 | 0.705 | 1.87 | 1.48 | 1.46 | 2.28 | 1.23 | 1.31 | 1.1
F fixed | 3.16 | 1.2 | 0.935 | 0.898 | 0.734 | 0.523 | 1.09 | 0.918 | 0.876
G fixed | 0.524 | 0.439 | 0.881 | 1.01 | 0.451 | 0.679 | 1.23 | 1.09 | 1.21
H fixed | 0.809 | 1.28 | 1.13 | 1.01 | 1.03 | 0.861 | 1.47 | 0.981 | 1.1
I fixed | 1.28 | 1.37 | 1.05 | 0.769 | 0.976 | 0.402 | 0.66 | 0.816 | 0.757
K fixed | 0.593 | 0.567 | 0.679 | 0.782 | 1.04 | 0.495 | 0.689 | 0.942 | 1.02
L fixed | 1.36 | 1.7 | 1.02 | 0.795 | 0.964 | 0.53 | 1.33 | 0.979 | 0.807
M fixed | 1.72 | 1.4 | 0.972 | 0.932 | 1.2 | 0.505 | 1.38 | 0.95 | 0.802
N fixed | 0.606 | 1.14 | 0.82 | 1.1 | 1.24 | 2.86 | 1.08 | 1 | 1.22
P fixed | 0.246 | 0.421 | 0.579 | 1.41 | 0.42 | 0.33 | 0.785 | 0.836 | 0.936
Q fixed | 0.856 | 0.847 | 0.982 | 0.945 | 1.17 | 0.747 | 0.857 | 0.849 | 0.842
R fixed | 0.908 | 0.959 | 0.76 | 0.813 | 1.4 | 0.641 | 0.998 | 0.961 | 1.02
V fixed | 1.06 | 1.14 | 1.02 | 0.701 | 1.03 | 0.373 | 0.552 | 0.791 | 0.813
W fixed | 0.971 | 1.05 | 1.05 | 1.09 | 0.563 | 0.636 | 0.898 | 1.16 | 1.06
Y fixed | 1.4 | 1.38 | 1 | 0.958 | 0.952 | 0.709 | 0.718 | 0.832 | 0.927
pThr fixed | 2.54 | 0.971 | 0.987 | 2.29 | 1.02 | 0.627 | 0.945 | 1.03 | 1.3
pTyr fixed | 1.02 | 1.47 | 1.67 | 1.8 | 1.98 | 0.802 | 1.01 | 0.88 | 1.33

Source: the supplement of paper PMC9876800
